US20240161865A1, “METHODS AND PROTEINS FOR TARGETING MAIN PROTEASE OF CORONAVIRUS” (priority 2022, published 2024)

Format: physicochemical
Conditions: 0.5 mg/mL protein, 25 mM HEPES pH 7.5, 1 mM TCEP, scan 15 to 65° C. at 60° C./hour

WT Mpro: wild-type SARS-CoV-2 main protease (nsp5), recombinant from E. coli
temperature associated with the DSC thermogram peak: 57.2 °C
